Results on five molecules are retold here after patent publication US20230110958A1 (Regeneron, published 2023).

Common to all, as to experiment: cell-based or functional assay
Assay [1] concerns the target human IL27 receptor (IL27Ra and gp130) on NCI-H929/GAS-Luc cells (human) (UniProt Q6UWB1).
Assay [2] concerns the target T1, murine IL27 receptor (IL27Ra and gp130) on mouse cells (MC9/STAT3-Luc reporter cells; splenic CD4+ T cells) (mouse, UniProt O70394 25-623; Q00560 23-917).
T1 sequence (looked up) 1: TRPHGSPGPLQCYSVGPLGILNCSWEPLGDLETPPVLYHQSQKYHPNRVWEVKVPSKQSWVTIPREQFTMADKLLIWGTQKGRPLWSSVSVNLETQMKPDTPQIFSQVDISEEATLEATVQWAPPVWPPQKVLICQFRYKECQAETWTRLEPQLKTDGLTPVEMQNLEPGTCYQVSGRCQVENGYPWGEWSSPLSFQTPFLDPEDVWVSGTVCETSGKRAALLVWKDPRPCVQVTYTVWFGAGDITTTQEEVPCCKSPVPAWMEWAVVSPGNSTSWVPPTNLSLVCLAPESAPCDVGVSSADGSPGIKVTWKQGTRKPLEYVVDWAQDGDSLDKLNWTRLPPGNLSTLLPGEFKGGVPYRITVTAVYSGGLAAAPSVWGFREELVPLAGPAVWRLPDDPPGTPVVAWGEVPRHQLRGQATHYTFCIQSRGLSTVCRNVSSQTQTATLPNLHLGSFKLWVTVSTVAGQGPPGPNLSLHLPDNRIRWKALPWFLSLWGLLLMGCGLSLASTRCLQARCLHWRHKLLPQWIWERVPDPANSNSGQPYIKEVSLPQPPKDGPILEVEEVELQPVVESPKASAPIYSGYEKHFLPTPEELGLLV
T1 sequence (looked up) 2: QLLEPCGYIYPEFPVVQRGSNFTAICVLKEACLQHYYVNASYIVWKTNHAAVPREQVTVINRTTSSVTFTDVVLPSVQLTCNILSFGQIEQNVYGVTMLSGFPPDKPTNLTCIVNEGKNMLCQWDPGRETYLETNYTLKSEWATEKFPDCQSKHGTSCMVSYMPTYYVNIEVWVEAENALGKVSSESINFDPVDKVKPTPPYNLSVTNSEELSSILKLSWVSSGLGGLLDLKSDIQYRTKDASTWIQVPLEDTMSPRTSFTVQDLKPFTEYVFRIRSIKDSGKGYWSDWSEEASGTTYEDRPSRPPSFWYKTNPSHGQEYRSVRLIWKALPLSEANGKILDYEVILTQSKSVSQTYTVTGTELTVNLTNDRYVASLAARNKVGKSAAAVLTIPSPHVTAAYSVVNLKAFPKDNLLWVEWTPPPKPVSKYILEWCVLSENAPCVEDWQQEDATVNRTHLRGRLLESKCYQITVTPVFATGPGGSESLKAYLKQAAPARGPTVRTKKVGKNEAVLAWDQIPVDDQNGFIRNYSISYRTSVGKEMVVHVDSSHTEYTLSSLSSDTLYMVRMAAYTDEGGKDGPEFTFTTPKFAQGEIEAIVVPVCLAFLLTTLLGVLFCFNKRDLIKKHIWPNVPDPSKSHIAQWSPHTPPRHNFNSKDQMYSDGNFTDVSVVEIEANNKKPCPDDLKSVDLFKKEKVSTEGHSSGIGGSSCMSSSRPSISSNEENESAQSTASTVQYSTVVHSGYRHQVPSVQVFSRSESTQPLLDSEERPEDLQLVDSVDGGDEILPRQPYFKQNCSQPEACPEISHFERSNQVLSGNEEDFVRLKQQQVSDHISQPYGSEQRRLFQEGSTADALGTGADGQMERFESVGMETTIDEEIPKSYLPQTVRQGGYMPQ

Assay [3] deals with human IL27 receptor (IL27Ra and gp130) on NCI-H929/GAS-Luc cells (human) (UniProt Q6UWB1). This is another data set of the same source.
The target in assay [4] is T1, murine IL27 receptor (IL27Ra and gp130) …. This is another data set of the same source.

Where two headings read alike, the source gives them in different places.

Chain of human IL27 receptor (IL27Ra and gp130) on NCI-H929/GAS-Luc cells (human) (Q6UWB1 33-636, chain 1 of 2): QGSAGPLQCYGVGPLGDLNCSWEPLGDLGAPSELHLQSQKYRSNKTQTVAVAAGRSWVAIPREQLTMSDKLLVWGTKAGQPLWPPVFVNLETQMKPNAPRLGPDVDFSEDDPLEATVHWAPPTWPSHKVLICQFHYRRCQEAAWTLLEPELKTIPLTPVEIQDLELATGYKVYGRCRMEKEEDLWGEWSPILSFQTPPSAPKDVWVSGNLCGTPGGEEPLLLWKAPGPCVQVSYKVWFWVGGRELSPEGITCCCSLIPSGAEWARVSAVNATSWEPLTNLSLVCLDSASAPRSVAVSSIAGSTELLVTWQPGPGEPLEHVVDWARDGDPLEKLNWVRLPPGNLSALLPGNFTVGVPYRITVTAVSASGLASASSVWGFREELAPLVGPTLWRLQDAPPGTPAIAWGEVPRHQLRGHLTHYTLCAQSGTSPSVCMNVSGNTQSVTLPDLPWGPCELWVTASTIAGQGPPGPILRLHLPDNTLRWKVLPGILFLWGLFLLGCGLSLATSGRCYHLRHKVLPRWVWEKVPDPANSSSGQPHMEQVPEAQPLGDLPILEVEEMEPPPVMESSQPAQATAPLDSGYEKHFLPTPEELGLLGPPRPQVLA
Chain of human IL27 receptor (IL27Ra and gp130) on NCI-H929/GAS-Luc cells (human) (chain, as listed by the source, chain 2 of 2): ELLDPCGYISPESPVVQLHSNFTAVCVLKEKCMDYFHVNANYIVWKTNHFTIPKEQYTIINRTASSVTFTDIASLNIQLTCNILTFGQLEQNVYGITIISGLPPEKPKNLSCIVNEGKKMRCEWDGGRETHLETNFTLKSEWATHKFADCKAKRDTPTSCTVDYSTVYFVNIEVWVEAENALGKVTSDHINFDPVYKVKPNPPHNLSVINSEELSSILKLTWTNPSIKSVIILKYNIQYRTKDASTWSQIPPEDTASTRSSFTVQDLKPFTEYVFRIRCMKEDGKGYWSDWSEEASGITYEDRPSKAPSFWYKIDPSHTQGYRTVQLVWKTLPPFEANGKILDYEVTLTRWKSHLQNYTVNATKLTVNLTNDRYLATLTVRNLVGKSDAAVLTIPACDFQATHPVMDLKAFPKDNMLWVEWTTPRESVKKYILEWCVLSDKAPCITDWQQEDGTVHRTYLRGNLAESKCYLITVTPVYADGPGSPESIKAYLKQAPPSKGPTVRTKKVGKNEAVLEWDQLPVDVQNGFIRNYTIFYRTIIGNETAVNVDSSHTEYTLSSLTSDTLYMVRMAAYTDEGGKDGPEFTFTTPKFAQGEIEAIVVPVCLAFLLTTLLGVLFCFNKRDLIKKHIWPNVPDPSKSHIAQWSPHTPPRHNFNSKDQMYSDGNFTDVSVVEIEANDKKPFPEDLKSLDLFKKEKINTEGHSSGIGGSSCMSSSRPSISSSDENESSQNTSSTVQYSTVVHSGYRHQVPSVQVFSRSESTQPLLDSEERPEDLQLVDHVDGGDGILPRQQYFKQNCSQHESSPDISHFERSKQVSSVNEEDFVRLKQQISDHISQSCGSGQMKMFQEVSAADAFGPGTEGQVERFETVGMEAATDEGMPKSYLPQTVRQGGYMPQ

In assay [1], “human hEBI3×hp28-Fc (monovalent) (Fc fusion)” gave an EC50 (M), GAS luciferase, NCI-H929/GAS-Luc cells of 1.27e-10 M and an FOLD INDUCTION, GAS luciferase, NCI-H929/GAS-Luc cells of 14.3 fold.

In assay [1], “human EBI3-p28-Fc (bivalent), configuration IL27M1 (Fc fusion)” registered an EC50 (M), GAS luciferase, NCI-H929/GAS-Luc cells of 5.35e-09 M and an FOLD INDUCTION, GAS luciferase, NCI-H929/GAS-Luc cells of 15.2 fold.

B1: IL27M2, Mouse p28-(GGGGS)3-Fc (Knob) with Mouse EBI3-(GGGGS)3-Fc (Hole/star) (Fc fusion)
chain 1: FPTDPLSLQELRREFTVSLYLARKLLSEVQGYVHSFAESRLPGVNLDLLPLGYHLPNVSLTFQAWHHLSDSERLCFLATTLRPFPAMLGGLGTQGTWTSSEREQLWAMRLDLRDLHRHLRFQVLAAGFKCSKEEEDKEEEEEEEEEEKKLPLGALGGPNQVSSQVSWPQLLYTYQLLHSLELVLSRAVRDLLLLSLPRRPGSAWDSGGGGSGGGGSGGGGSESKYGPPCPPCPAPPVAGPSVFLFPPKPKDTLMISRTPEVTCVVVDVSQEDPEVQFNWYVDGVEVHNAKTKPREEQFNSTYRVVSVLTVLHQDWLNGKEYKCKVSNKGLPSSIEKTISKAKGQPREPQVYTLPPSQEEMTKNQVSLWCLVKGFYPSDIAVEWESNGQPENNYKTTPPVLDSDGSFFLYSRLTVDKSRWQEGNVFSCSVMHEALHNHYTQKSLSLSLGK
chain 2: YTETALVALSQPRVQCHASRYPVAVDCSWTPLQAPNSTRSTSFIATYRLGVATQQQSQPCLQRSPQASRCTIPDVHLFSTVPYMLNVTAVHPGGASSSLLAFVAERIIKPDPPEGVRLRTAGQRLQVLWHPPASWPFPDIFSLKYRLRYRRRGASHFRQVGPIEATTFTLRNSKPHAKYCIQVSAQDLTDYGKPSDWSLPGQVESAPHKPGGGGSGGGGSGGGGSESKYGPPCPPCPAPPVAGPSVFLFPPKPKDTLMISRTPEVTCVVVDVSQEDPEVQFNWYVDGVEVHNAKTKPREEQFNSTYRVVSVLTVLHQDWLNGKEYKCKVSNKGLPSSIEKTISKAKGQPREPQVYTLPPSQEEMTKNQVSLSCAVKGFYPSDIAVEWESNGQPENNYKTTPPVLDSDGSFFLVSRLTVDKSRWQEGNVFSCSVMHEALHNRFTQKSLSLSPGK
For B1, in assay [2], the “EC50, luciferase activity, MC9/STAT3-Luc reporter cells” value is about 0.0032 nM and the “EC50, phosphorylation of STAT1 in CD4+ T-cells” value was about 0.0224 µg/mL.

B2: Recombinant human IL27 (R&D Systems cat# 2526-IL-010/CF), Human EBI3-…-Human p28-6-His tag (ligand)
chain: RKGPPAALTLPRVQCRASRYPIAVDCSWTLPPAPNSTSPVSFIATYRLGMAARGHSWPCLQQTPTSTSCTITDVQLFSMAPYVLNVTAVHPWGSSSSFVPFITEHIIKPDPPEGVRLSPLAERQLQVQWEPPGSWPFPEIFSLKYWIRYKRQGAARFHRVGPIEATSFILRAVRPRARYYVQVAAQDLTDYGELSDWSLPATATMSLGKGSGSSRGGSGSGGSGGGGSKLAGVWGFPRPPGRPQLSLQELRREFTVSLHLARKLLSEVRGQAHRFAESHLPGVNLYLLPLGEQLPDVSLTFQAWRRLSDPERLCFISTTLQPFHALLGGLGTQGRWTNMERMQLWAMRLDLRDLQRHLRFQVLAAGFNLPEEEEEEEEEEEEERKGLLPGALGSALQGPAQVSWPQLLSTYRLLHSLELVLSRAVRELLLLSKAGHSVWPLGFPTLSPQPHHHHHH
For the molecule B2, in assay [3], the EC50 (M), GAS luciferase, NCI-H929/GAS-Luc cells turned out to be 3.34e-10 M and the FOLD INDUCTION, GAS luciferase, NCI-H929/GAS-Luc cells turned out to be 12.3 fold.

B3: IL27M1, Mouse EBI3-(GGGS)4-p28-(GGGGS)3-Fc (Fc fusion)
chain: YTETALVALSQPRVQCHASRYPVAVDCSWTPLQAPNSTRSTSFIATYRLGVATQQQSQPCLQRSPQASRCTIPDVHLFSTVPYMLNVTAVHPGGASSSLLAFVAERIIKPDPPEGVRLRTAGQRLQVLWHPPASWPFPDIFSLKYRLRYRRRGASHFRQVGPIEATTFTLRNSKPHAKYCIQVSAQDLTDYGKPSDWSLPGQVESAPHKPGGGSGGGSGGGSGGGSFPTDPLSLQELRREFTVSLYLARKLLSEVQGYVHSFAESRLPGVNLDLLPLGYHLPNVSLTFQAWHHLSDSERLCFLATTLRPFPAMLGGLGTQGTWTSSEREQLWAMRLDLRDLHRHLRFQVLAAGFKCSKEEEDKEEEEEEEEEEKKLPLGALGGPNQVSSQVSWPQLLYTYQLLHSLELVLSRAVRDLLLLSLPRRPGSAWDSGGGGSGGGGSGGGGSESKYGPPCPPCPAPPVAGPSVFLFPPKPKDTLMISRTPEVTCVVVDVSQEDPEVQFNWYVDGVEVHNAKTKPREEQFNSTYRVVSVLTVLHQDWLNGKEYKCKVSNKGLPSSIEKTISKAKGQPREPQVYTLPPSQEEMTKNQVSLTCLVKGFYPSDIAVEWESNGQPENNYKTTPPVLDSDGSFFLYSRLTVDKSRWQEGNVFSCSVMHEALHNHYTQKSLSLSLGK
Take B3: in assay [2], the “EC50, luciferase activity, MC9/STAT3-Luc reporter cells” value is about 0.48 nM and the “EC50, phosphorylation of STAT1 in CD4+ T-cells” value is about 2 µg/mL. Further, in assay [4], the “EC50 (M), STAT3 luciferase, MC9 cells” value stood at 1.01e-09 M and the “FOLD INDUCTION, STAT3 luciferase, MC9 cells” value is 2.95 fold.
